Measurements as given in PMC9677509 (Biochemistry, 2017).
Positions count from the first letter of the chain named. Names and notes keep the numbering of the source.

B1: human FLAG-tagged wild type histidyl-tRNA synthetase (HARS) (enzyme, UniProt P12081 1-509, looked up)
chain: MAERAALEELVKLQGERVRGLKQQKASAELIEEEVAKLLKLKAQLGPDESKQKFVLKTPKGTRDYSPRQMAVREKVFDVIIRCFKRHGAEVIDTPVFELKETLMGKYGEDSKLIYDLKDQGGELLSLRYDLTVPFARYLAMNKLTNIKRYHIAKVYRRDNPAMTRGRYREFYQCDFDIAGNFDPMIPDAECLKIMCEILSSLQIGDFLVKVNDRRILDGMFAICGVSDSKFRTICSSVDKLDKVSWEEVKNEMVGEKGLAPEVADRIGDYVQQHGGVSLVEQLLQDPKLSQNKQALEGLGDLKLLFEYLTLFGIDDKISFDLSLARGLDYYTGVIYEAVLLQTPAQAGEEPLGVGSVAAGGRYDGLVGMFDPKGRKVPCVGLSIGVERIFSIVEQRLEALEEKIRTTETQVLVASAQKKLLEERLKLVSELWDAGIKAELLYKKNPKLLNQLQYCEEAGIPLVAIIGEQELKDGVIKLRSVTSREEVDVRREDLVEEIKRRTGQPLCIC
B2: human FLAG-tagged Y454S histidyl-tRNA synthetase (HARS) (enzyme, UniProt P12081 1-509, looked up)
chain: B1 chain with Y454S

Columns and labels:
[1] = biological target: temperature sensitive HARS with the R362H substitution (UniProt P12081); experiment: AUC
[2] = biological target: the molecule itself; experiment: AUC

Molecule	stoichiometry N [1]	stoichiometry N [2]
temperature sensitive HARS with the R362H substitution (from UniProt P12081 1-509) (enzyme)	2	–
B1	–	2
B2	–	2
